Laboratory results published in patent US20150246136A1 (Bayer, published 2015).

Tests used:
[1] = target: Carboanhydrase IX (Homo sapiens, UniProt Q16790 38-459); assay: cell-based or functional assay
[2] = target: Mesothelin (SwissProt reference Q13421-3) (Homo sapiens, UniProt Q13421 37-622); assay: cell-based or functional assay

| Binder | MIAPaCa 2/CA9+ IC50 [1] | IC50 (nM), HT29 meso+ cells, MTT proliferation assay [2] |
| --- | --- | --- |
| Example 313 (antibody, human IgG1, kappa, V domains shown, linker-toxophore on cysteine S) VH: QVELVESGGGLVQPGGSLRLSCAASGFTFSSYGMSWVRQAPGKGLEWVSGISSLGSTTYYADSVKGRFTISRDNSKNTLYLQMNSLRAEDTAVYYCARTGSPGTFMHGDHWGQGTLVTVSS VL: DIQMTQSPSSLSASVGDRVTITCRASQDINNYLSWYQQKPGKAPKLLIYGASNLQSGVPSRFSGSGSGTDFTLTISSLQPEDFAVYYCQQYYGRPTTFGQGTKVEIKR | 3.8 nM |  |
| Example 149, conjugate of anti-mesothelin antibody MF-Ta (antibody, human IgG1, lambda, V domains shown, toxophore-linker on Lys NH, sites not given) VH: QVELVQSGAEVKKPGESLKISCKGSGYSFTSYWIGWVRQAPGKGLEWMGIIDPGDSRTRYSPSFQGQVTISADKSISTAYLQWSSLKASDTAMYYCARGQLYGGTYMDGWGQGTLVTVSS VL: DIALTQPASVSGSPGQSITISCTGTSSDIGGYNSVSWYQQHPGKAPKLMIYGVNNRPSGVSNRFSGSKSGNTASLTISGLQAEDEADYYCSSYDIESATPVFGGGTKLTVLG |  | 3.1 nM |
| Example 152, conjugate of anti-mesothelin antibody MF-Ta (antibody, human IgG1, lambda, V domains shown, toxophore-linker on Lys NH, sites not given) VH: QVELVQSGAEVKKPGESLKISCKGSGYSFTSYWIGWVRQAPGKGLEWMGIIDPGDSRTRYSPSFQGQVTISADKSISTAYLQWSSLKASDTAMYYCARGQLYGGTYMDGWGQGTLVTVSS VL: DIALTQPASVSGSPGQSITISCTGTSSDIGGYNSVSWYQQHPGKAPKLMIYGVNNRPSGVSNRFSGSKSGNTASLTISGLQAEDEADYYCSSYDIESATPVFGGGTKLTVLG |  | 4.1 nM |
| Example 150, conjugate of anti-mesothelin antibody MF-Ta (antibody, human IgG1, lambda, V domains shown, toxophore-linker on Lys NH, sites not given) VH: QVELVQSGAEVKKPGESLKISCKGSGYSFTSYWIGWVRQAPGKGLEWMGIIDPGDSRTRYSPSFQGQVTISADKSISTAYLQWSSLKASDTAMYYCARGQLYGGTYMDGWGQGTLVTVSS VL: DIALTQPASVSGSPGQSITISCTGTSSDIGGYNSVSWYQQHPGKAPKLMIYGVNNRPSGVSNRFSGSKSGNTASLTISGLQAEDEADYYCSSYDIESATPVFGGGTKLTVLG |  | < 0.1 nM |
| Example 155, conjugate of anti-mesothelin antibody MF-Ta (antibody, human IgG1, lambda, V domains shown, toxophore-linker, coupling residue not stated) VH: QVELVQSGAEVKKPGESLKISCKGSGYSFTSYWIGWVRQAPGKGLEWMGIIDPGDSRTRYSPSFQGQVTISADKSISTAYLQWSSLKASDTAMYYCARGQLYGGTYMDGWGQGTLVTVSS VL: DIALTQPASVSGSPGQSITISCTGTSSDIGGYNSVSWYQQHPGKAPKLMIYGVNNRPSGVSNRFSGSKSGNTASLTISGLQAEDEADYYCSSYDIESATPVFGGGTKLTVLG |  | 0.5 nM |
| Example 159, conjugate of anti-mesothelin antibody MF-Ta (antibody, human IgG1, lambda, V domains shown, toxophore-linker, coupling residue not stated) VH: QVELVQSGAEVKKPGESLKISCKGSGYSFTSYWIGWVRQAPGKGLEWMGIIDPGDSRTRYSPSFQGQVTISADKSISTAYLQWSSLKASDTAMYYCARGQLYGGTYMDGWGQGTLVTVSS VL: DIALTQPASVSGSPGQSITISCTGTSSDIGGYNSVSWYQQHPGKAPKLMIYGVNNRPSGVSNRFSGSKSGNTASLTISGLQAEDEADYYCSSYDIESATPVFGGGTKLTVLG |  | 177 nM |
| Example 158, conjugate of anti-mesothelin antibody MF-Ta (antibody, human IgG1, lambda, V domains shown, toxophore-linker, coupling residue not stated) VH: QVELVQSGAEVKKPGESLKISCKGSGYSFTSYWIGWVRQAPGKGLEWMGIIDPGDSRTRYSPSFQGQVTISADKSISTAYLQWSSLKASDTAMYYCARGQLYGGTYMDGWGQGTLVTVSS VL: DIALTQPASVSGSPGQSITISCTGTSSDIGGYNSVSWYQQHPGKAPKLMIYGVNNRPSGVSNRFSGSKSGNTASLTISGLQAEDEADYYCSSYDIESATPVFGGGTKLTVLG |  | 0.18 nM |
| Example 151, conjugate of anti-mesothelin antibody MF-Ta (antibody, human IgG1, lambda, V domains shown, toxophore-linker on Cys sulfur, sites not given) VH: QVELVQSGAEVKKPGESLKISCKGSGYSFTSYWIGWVRQAPGKGLEWMGIIDPGDSRTRYSPSFQGQVTISADKSISTAYLQWSSLKASDTAMYYCARGQLYGGTYMDGWGQGTLVTVSS VL: DIALTQPASVSGSPGQSITISCTGTSSDIGGYNSVSWYQQHPGKAPKLMIYGVNNRPSGVSNRFSGSKSGNTASLTISGLQAEDEADYYCSSYDIESATPVFGGGTKLTVLG |  | > 1000 nM |
| Example 154, conjugate of anti-mesothelin antibody MF-Ta (antibody, human IgG1, lambda, V domains shown, toxophore-linker on Cys sulfur, sites not given) VH: QVELVQSGAEVKKPGESLKISCKGSGYSFTSYWIGWVRQAPGKGLEWMGIIDPGDSRTRYSPSFQGQVTISADKSISTAYLQWSSLKASDTAMYYCARGQLYGGTYMDGWGQGTLVTVSS VL: DIALTQPASVSGSPGQSITISCTGTSSDIGGYNSVSWYQQHPGKAPKLMIYGVNNRPSGVSNRFSGSKSGNTASLTISGLQAEDEADYYCSSYDIESATPVFGGGTKLTVLG |  | 2.2 nM |
| Example 156, conjugate of anti-mesothelin antibody MF-Ta (antibody, human IgG1, lambda, V domains shown, toxophore-linker, coupling residue not stated) VH: QVELVQSGAEVKKPGESLKISCKGSGYSFTSYWIGWVRQAPGKGLEWMGIIDPGDSRTRYSPSFQGQVTISADKSISTAYLQWSSLKASDTAMYYCARGQLYGGTYMDGWGQGTLVTVSS VL: DIALTQPASVSGSPGQSITISCTGTSSDIGGYNSVSWYQQHPGKAPKLMIYGVNNRPSGVSNRFSGSKSGNTASLTISGLQAEDEADYYCSSYDIESATPVFGGGTKLTVLG |  | 4.6 nM |
| Example 153, conjugate of anti-mesothelin antibody MF-Ta (antibody, human IgG1, lambda, V domains shown, toxophore-linker on Cys sulfur, sites not given) VH: QVELVQSGAEVKKPGESLKISCKGSGYSFTSYWIGWVRQAPGKGLEWMGIIDPGDSRTRYSPSFQGQVTISADKSISTAYLQWSSLKASDTAMYYCARGQLYGGTYMDGWGQGTLVTVSS VL: DIALTQPASVSGSPGQSITISCTGTSSDIGGYNSVSWYQQHPGKAPKLMIYGVNNRPSGVSNRFSGSKSGNTASLTISGLQAEDEADYYCSSYDIESATPVFGGGTKLTVLG |  | 30 nM |
| Example 157, conjugate of anti-mesothelin antibody MF-Ta (antibody, human IgG1, lambda, V domains shown, toxophore-linker, coupling residue not stated) VH: QVELVQSGAEVKKPGESLKISCKGSGYSFTSYWIGWVRQAPGKGLEWMGIIDPGDSRTRYSPSFQGQVTISADKSISTAYLQWSSLKASDTAMYYCARGQLYGGTYMDGWGQGTLVTVSS VL: DIALTQPASVSGSPGQSITISCTGTSSDIGGYNSVSWYQQHPGKAPKLMIYGVNNRPSGVSNRFSGSKSGNTASLTISGLQAEDEADYYCSSYDIESATPVFGGGTKLTVLG |  | 0.09 nM |

Second part, the binder after the results:

| MIAPaCa 2/CA9+ IC50 [1] | IC50 (nM), HT29 meso+ cells, MTT proliferation assay [2] | Binder |
| --- | --- | --- |
| 150 nM |  | Example 314 (antibody, human IgG1, kappa, V domains shown, linker-toxophore on lysine NH) VH: QVELVESGGGLVQPGGSLRLSCAASGFTFSSYGMSWVRQAPGKGLEWVSGISSLGSTTYYADSVKGRFTISRDNSKNTLYLQMNSLRAEDTAVYYCARTGSPGTFMHGDHWGQGTLVTVSS VL: DIQMTQSPSSLSASVGDRVTITCRASQDINNYLSWYQQKPGKAPKLLIYGASNLQSGVPSRFSGSGSGTDFTLTISSLQPEDFAVYYCQQYYGRPTTFGQGTKVEIKR |
|  | 0.06 nM | Example 367, conjugate of anti-mesothelin antibody MF-Ta (antibody, human IgG1, lambda, V domains shown, toxophore-linker on Lys NH, sites not given) VH: QVELVQSGAEVKKPGESLKISCKGSGYSFTSYWIGWVRQAPGKGLEWMGIIDPGDSRTRYSPSFQGQVTISADKSISTAYLQWSSLKASDTAMYYCARGQLYGGTYMDGWGQGTLVTVSS VL: DIALTQPASVSGSPGQSITISCTGTSSDIGGYNSVSWYQQHPGKAPKLMIYGVNNRPSGVSNRFSGSKSGNTASLTISGLQAEDEADYYCSSYDIESATPVFGGGTKLTVLG |
|  | 1.6 nM | Example 377, conjugate of anti-mesothelin antibody MF-Ta (antibody, human IgG1, lambda, V domains shown, toxophore-linker on Cys sulfur, sites not given) VH: QVELVQSGAEVKKPGESLKISCKGSGYSFTSYWIGWVRQAPGKGLEWMGIIDPGDSRTRYSPSFQGQVTISADKSISTAYLQWSSLKASDTAMYYCARGQLYGGTYMDGWGQGTLVTVSS VL: DIALTQPASVSGSPGQSITISCTGTSSDIGGYNSVSWYQQHPGKAPKLMIYGVNNRPSGVSNRFSGSKSGNTASLTISGLQAEDEADYYCSSYDIESATPVFGGGTKLTVLG |
|  | 7 nM | Example 379 (Diastereomer 1), conjugate of anti-mesothelin antibody MF-Ta (antibody, human IgG1, lambda, V domains shown, toxophore-linker on Lys NH, sites not given) VH: QVELVQSGAEVKKPGESLKISCKGSGYSFTSYWIGWVRQAPGKGLEWMGIIDPGDSRTRYSPSFQGQVTISADKSISTAYLQWSSLKASDTAMYYCARGQLYGGTYMDGWGQGTLVTVSS VL: DIALTQPASVSGSPGQSITISCTGTSSDIGGYNSVSWYQQHPGKAPKLMIYGVNNRPSGVSNRFSGSKSGNTASLTISGLQAEDEADYYCSSYDIESATPVFGGGTKLTVLG |
|  | 0.02 nM | Example 369, conjugate of anti-mesothelin antibody MF-Ta (antibody, human IgG1, lambda, V domains shown, toxophore-linker on Lys NH, sites not given) VH: QVELVQSGAEVKKPGESLKISCKGSGYSFTSYWIGWVRQAPGKGLEWMGIIDPGDSRTRYSPSFQGQVTISADKSISTAYLQWSSLKASDTAMYYCARGQLYGGTYMDGWGQGTLVTVSS VL: DIALTQPASVSGSPGQSITISCTGTSSDIGGYNSVSWYQQHPGKAPKLMIYGVNNRPSGVSNRFSGSKSGNTASLTISGLQAEDEADYYCSSYDIESATPVFGGGTKLTVLG |
|  | 3.1 nM | Example 368, conjugate of anti-mesothelin antibody MF-Ta (antibody, human IgG1, lambda, V domains shown, toxophore-linker on Lys NH, sites not given) VH: QVELVQSGAEVKKPGESLKISCKGSGYSFTSYWIGWVRQAPGKGLEWMGIIDPGDSRTRYSPSFQGQVTISADKSISTAYLQWSSLKASDTAMYYCARGQLYGGTYMDGWGQGTLVTVSS VL: DIALTQPASVSGSPGQSITISCTGTSSDIGGYNSVSWYQQHPGKAPKLMIYGVNNRPSGVSNRFSGSKSGNTASLTISGLQAEDEADYYCSSYDIESATPVFGGGTKLTVLG |
|  | 15 nM | Example 380 (Diastereomer 2), conjugate of anti-mesothelin antibody MF-Ta (antibody, human IgG1, lambda, V domains shown, toxophore-linker on Lys NH, sites not given) VH: QVELVQSGAEVKKPGESLKISCKGSGYSFTSYWIGWVRQAPGKGLEWMGIIDPGDSRTRYSPSFQGQVTISADKSISTAYLQWSSLKASDTAMYYCARGQLYGGTYMDGWGQGTLVTVSS VL: DIALTQPASVSGSPGQSITISCTGTSSDIGGYNSVSWYQQHPGKAPKLMIYGVNNRPSGVSNRFSGSKSGNTASLTISGLQAEDEADYYCSSYDIESATPVFGGGTKLTVLG |
|  | 0.04 nM | Example 378, conjugate of anti-mesothelin antibody MF-Ta (antibody, human IgG1, lambda, V domains shown, toxophore-linker on Lys NH, sites not given) VH: QVELVQSGAEVKKPGESLKISCKGSGYSFTSYWIGWVRQAPGKGLEWMGIIDPGDSRTRYSPSFQGQVTISADKSISTAYLQWSSLKASDTAMYYCARGQLYGGTYMDGWGQGTLVTVSS VL: DIALTQPASVSGSPGQSITISCTGTSSDIGGYNSVSWYQQHPGKAPKLMIYGVNNRPSGVSNRFSGSKSGNTASLTISGLQAEDEADYYCSSYDIESATPVFGGGTKLTVLG |
|  | 1.3 nM | Example 366, conjugate of anti-mesothelin antibody MF-Ta (antibody, human IgG1, lambda, V domains shown, toxophore-linker on Cys sulfur, sites not given) VH: QVELVQSGAEVKKPGESLKISCKGSGYSFTSYWIGWVRQAPGKGLEWMGIIDPGDSRTRYSPSFQGQVTISADKSISTAYLQWSSLKASDTAMYYCARGQLYGGTYMDGWGQGTLVTVSS VL: DIALTQPASVSGSPGQSITISCTGTSSDIGGYNSVSWYQQHPGKAPKLMIYGVNNRPSGVSNRFSGSKSGNTASLTISGLQAEDEADYYCSSYDIESATPVFGGGTKLTVLG |
